Several values for one entry are separate records, joined by “and”; a condition that tells them apart may be missing. Identical values can stand only once.
T1: human monomeric BCMA antigen (human, UniProt Q02223 5-54, limits assumed)
T1 construct: also called recombinant human BCMA antigens
T1 chain: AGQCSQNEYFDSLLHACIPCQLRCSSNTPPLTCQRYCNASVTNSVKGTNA

T2: mouse BCMA (1-49) fused to the Fc region of human IgG1 (mouse; human, UniProt O88472 1-49)
T2 construct: Sino Biological Inc. 50076-M01H; also called 50076-M01H; not shown: Fc region of human IgG1
T2 chain: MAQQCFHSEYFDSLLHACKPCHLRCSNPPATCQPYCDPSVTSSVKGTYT

T3: rat BCMA (1-49) fused to the Fc region of human IgG1 (rat; human)
T3 construct: Sino Biological Inc. 80156-R01H; also called 80156-R01H; not shown: Fc region of human IgG1
T3 chain: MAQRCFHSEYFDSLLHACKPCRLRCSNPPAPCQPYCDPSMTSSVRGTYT

T4: recombinant human BCMA (ELISA antigen, construct not specified) (human, UniProt Q02223 1-54)
T4 construct: Fc 1-51; Fc/His 1-51; Fc 4-48) was coated in these ELISAs; also called recombinant BCMA; recombinant protein
T4 sequence: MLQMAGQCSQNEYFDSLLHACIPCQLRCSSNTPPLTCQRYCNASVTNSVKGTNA

T5: human BCMA expressed on cell surface (H929, OPM-2, CHOK1-hBCMA cells) (human, UniProt Q02223 1-184)
T5 construct: also called cell-surface BCMA; BCMA on cell surface
T5 sequence: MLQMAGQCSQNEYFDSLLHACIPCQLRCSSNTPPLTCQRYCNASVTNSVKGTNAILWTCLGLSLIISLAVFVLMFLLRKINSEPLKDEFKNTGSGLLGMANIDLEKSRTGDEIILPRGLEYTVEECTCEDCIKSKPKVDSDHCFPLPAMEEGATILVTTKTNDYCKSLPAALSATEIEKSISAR

B1: anti-BCMA IgG antibody 5D5 (antibody, V domains shown)
VH: EVQLLESGGGLVQPGGSLRLSCAASGFTFSDYGLSWVRQAPGKGLEWVSLIDSSGSSTFYADSVKGRFTISRDNSKNTLYLQMNSLRAEDTAVYYCAKEHGLFDSWGQGTLVTVSS
VL: EIVLTQSPGTLSLSPGERATLSCKASQDIDDDINWYQQKPGQAPRLLIYDASLRATGIPDRFSGSGSGTDFTLTISRLEPEDFAVYYCQQSLRTPITFGQGTKLEIKR
notes: also called 5D5 WT; 5D5 antibody
B2: anti-BCMA IgG antibody 5A6 (antibody, V domains shown)
VH: EVQLLESGGGLVQPGGSLRLSCAASGFTFSNYGVHWVRQAPGKGLEWVSYISYSGGTYYNPSLKSRFTISRDNSKNTLYLQMNSLRAEDTAVYYCARDSDDFGFDYWGQGTLVTVSS
VL: QSVLTQPPSASGTPGQRVTISCQGDSLRSYYVNWYQQLPGTAPKLLIYDHSKRPTGVPDRFSGSKSGTSASLAISGLRSEDEADYYCQSYDSSTVVFGGGTKLTVLG
notes: also called 5A6 WT; 5A6 antibody

Columns and labels:
[1] = target: T1, human monomeric BCMA antigen; assay: SPR (Biacore T200), antibody captured on protein A chip, antigen 6.25-100 nM
Protocol: In particular, the prepared antibodies were diluted with a 1×HPS-EP buffer (GE Healthcare, BR-1006-69). The target antigen-binding affinity analysis was performed using a Biacore T200 (GE Healthcare). The antibodies were flowed onto a protein A chip at a contact time of 60 seconds, a stabilization time of 30 seconds, and a flow rate of 30 μl/min until a capture level reached 128 RU (Response Unit), thereby preparing an antibody-captured protein A chip.
The antigen was sequentially diluted with a 1×HPS-EP buffer, by 2-fold each time, from 100 nM to 6.25 nM, thereby preparing a total of […] samples. The 1×HPS-EP buffer was used as a negative control group (blank).
The prepared antigen was flowed across the antibody-captured protein A chip at a flow rate of 30 μl/min for an association time of 60 seconds, followed by a disassociation phase for 180 seconds. Regeneration was performed with a 10-mM Glycine-HCL (pH 1.5) buffer (GE Healthcare, BR-1003-54) at a flow rate of 30 μl/min for a contact time of 30 seconds.

[2] = target: T2, mouse BCMA (1-49) fused to the Fc …; assay: ELISA, 100 ng coated antigen
[3] = target: T3, rat BCMA (1-49) fused to the Fc region …; assay: ELISA, 100 ng coated antigen
[4] = target: T6, monkey (Rhesus) BCMA (1-53) fused to the Fc region of human IgG1 (monkey (Rhesus); human, UniProt Q02223 1-54); assay: ELISA, 100 ng coated antigen
T6 construct: Sino Biological Inc. 90103-C02H; also called monkey BCMA; Monkey BCMA (1-53); not shown: Fc region of human IgG1

[5] = target: T4, recombinant human BCMA (ELISA antigen, …); assay: ELISA on recombinant BCMA
[6] = target: T5, human BCMA expressed on cell surface …; assay: FACS on H929 cells, 10 µg/ml antibody, anti-human Fc-FITC; open histogram shifted right of the filled control
Protocol: Multiple myeloma cancer cells H929 (ATCC, CRL9068™) and OPM-2 cell line (DSMZ, ACC 50), which are known to express BCMA, were prepared, and human BCMA-overexpressed CHOK1-hBCMA cell line (constructed by ABIBio) were prepared.
10 μg/ml of the seven IgG antibodies (B58, 5A6, 5D5, 5B5, 1H, 2G, and 5G) purified in Example 1.4 was added to the prepared cells, incubated at 4° C. for 1 hour, and then washed two times with a PBS buffer solution. The anti-human Fc-FITC was diluted in 1:400, incubated at 4° C. for 1 hour, and then washed with a PBS buffer solution. These processes were repeated. In FIGS. 2A and 2B, MFI indicates mean fluorescence intensity.

[7] = target: T4, recombinant human BCMA (ELISA antigen, …); assay: ELISA on 100 ng coated human BCMA, antibody titrated, anti-human Fab HRP, absorbance 450 nm
Protocol: 100 ng of human, monkey, mouse, and rat BCMA antigens prepared in Example 1.1 were coated on the bottom of the plate, and then coated with 3% BSA to block nonspecific binding. Using the selected anti-BCMA IgG antibodies as primary antibodies, and the anti-human Fab HRP (1:20000 dilution) as a secondary antibody, ELISA assay was performed as described in Example 1.3.
Absorbancies at 450 nm measured with a microplate reader are shown in FIG. 3, and half maximal effective concentrations (EC₅₀) (nM) are shown in Table 9.

| Binder | Kd [1] | koff [1] | kon [1] | EC50 [2] | EC50 [3] | EC50 [4] | EC50 [5] | MFI [6] | EC50 (read off the curve) [7] |
| --- | --- | --- | --- | --- | --- | --- | --- | --- | --- |
| B1 | 22.8 nM | 0.0601 s⁻¹ | 2.63e+06 M⁻¹ s⁻¹ | 150 nM | 98 nM | 94 nM | 0.0708 nM and 0.0652 nM | 29.9 | ~0.01 µg/mL |
| B2 | 62.4 nM | 0.0249 s⁻¹ | 399000 M⁻¹ s⁻¹ | – | – | 153 nM | 0.0631 nM and 0.0643 nM and 0.077 nM | 100 | ~0.02 µg/mL |

From patent publication US20210284749A1 (ABL BIO, published 2021)
